What was measured:
[1] = biological target: T1, recombinant biotinylated human neonatal Fc receptor (FcRn) (human, UniProt P55899 24-297; P61769 21-119, limits assumed, biotinylated); experiment: AlphaLISA competition at pH 6: test antibody titrated against biotinylated human FcRn on donor beads; competitor: human IgG on acceptor beads
T1 construct: also called human FcRn
Method: (§1) The interaction of the unmodified and of conjugated anti-PD1 antibodies with the human neonatal Fc receptor (FcRn) at pH 6 was measured using the AlphaLISA Human FcRn Binding Kit (AL3095C) from Perkin Elmer (Schwerzenbach, Switzerland).
(§2) After 90 min at 23° C. in the dark, AlphaLISA signal was measured on an EnSpire plate reader (Excitation at 680 nm, Emission at 615 nm) from Perkin Elmer (Schwerzenbach, Switzerland).

[2] = biological target: T2, recombinant biotinylated human Fc gamma receptor I (FcγRI/CD64) (human, UniProt P12314 16-288, limits assumed, biotinylated); experiment: AlphaLISA competition: test antibody titrated against biotinylated human FcγRI on donor beads; competitor: human IgG Fc on acceptor beads; signal normalized to %
T2 construct: also called FcgRI
Method: (§3) The interaction of the unmodified and of conjugated antibodies with human Fc gamma receptors I (FcγRI/CD64), with human Fc gamma receptors II (FcγRIIa/CD32), and with low affinity human Fc gamma receptors III FcγR3a/CD16 V158 were measured using the AlphaLISA® Human FcγR1/CD64 (AL3081C), FcγRIIa/CD32a 167H (AL3086C), and FcγRIII/CD16 176P/F158 (AL3471HV) binding Kits respectively (Perkin Elmer, Schwerzenbach, Switzerland).
(§4) After 90 min at 23° C. in the dark, AlphaLISA® signal was measured on an EnSpire plate reader (Excitation at 680 nm, Emission at 615 nm) from Perkin Elmer (Schwerzenbach, Switzerland).

[3] = biological target: T2, recombinant biotinylated human Fc gamma …; experiment: AlphaLISA competition; test molecule titrated against human IgG Fc acceptor beads for biotinylated FcγRI
Method: as §3, §4

[4] = biological target: T1, recombinant biotinylated human neonatal …; experiment: AlphaLISA competition at pH 6; test molecule titrated against human IgG acceptor beads for biotinylated human FcRn
Method: as §1, §2

[5] = biological target: T3, recombinant biotinylated human Fc gamma receptor IIIa (FcγRIIIa/CD16) (human, UniProt P08637 17-208, limits assumed, biotinylated); experiment: AlphaLISA competition; test molecule titrated against human IgG Fc acceptor beads for biotinylated FcγRIIIa
T3 construct: Allotype given inconsistently (V158 against 176P/F158); also called FcgRIIIa; FcγR3a
Method: as §3, §4

[6] = biological target: T2, recombinant biotinylated human Fc gamma …; experiment: AlphaLISA competition: test antibody titrated against biotinylated human FcγRI; competitor: human IgG Fc on acceptor beads; signal normalized to %; panel 'FcγR1/CD64 Binding Assay'
Method: as §3, §4

[7] = biological target: T4, recombinant biotinylated human Fc gamma receptor IIa (FcγRIIa/CD32a 167H) (human, UniProt P12318 36-218, limits assumed, biotinylated); experiment: AlphaLISA competition: test antibody titrated against biotinylated human FcγRIIa; competitor: human IgG Fc on acceptor beads; signal normalized to %; panel 'FcγR2a/CD32a Binding Assay'
T4 construct: also called FcgRIIa
T4 sequence (looked up): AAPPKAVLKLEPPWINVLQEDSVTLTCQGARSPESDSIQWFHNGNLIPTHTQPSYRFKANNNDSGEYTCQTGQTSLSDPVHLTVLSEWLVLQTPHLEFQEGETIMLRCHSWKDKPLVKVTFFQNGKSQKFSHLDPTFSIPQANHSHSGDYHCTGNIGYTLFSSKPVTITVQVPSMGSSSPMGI
Method: as §3, §4

[8] = biological target: T3, recombinant biotinylated human Fc gamma …; experiment: AlphaLISA competition: test antibody titrated against biotinylated human FcγRIIIa; competitor: human IgG Fc on acceptor beads; signal normalized to %; panel 'FcγR3a/CD16 Binding Assay'
Method: as §3, §4

[9] = biological target: recombinant biotinylated PD1/CD279 protein (AcroBiosystems PD1-H82E4) (UniProt Q15116 25-167, biotinylated); experiment: ELISA; antibody coated on plate, biotinylated antigen titrated, streptavidin-HRP
Method: The interaction of the unmodified and of conjugated antibodies their antigens were measured by ELISA assay.
For these PD-1 ELISAs, Corning high-binding half-area plates (Fisher Scientific, Reinach, Switzerland) were coated overnight at 4° C. with 25 μl of unmodified and of conjugated anti-PD1 antibodies at 5 μg/ml in PBS. Plates were then washed four times with 100 μl of PBS-0.02% Tween20. Plates surfaces were blocked with 25 μl of PBS-0.02% Tween20-1% BSA at 37° C. during 1 h. Plates were then washed four times with 100 μl of PBS-0.02% Tween20. […] Fifty microliters of TMB substrate reagent (#CL07, Merck, Buchs, Switzerland) were added to each well and incubated at 37° C. during 5 min. After 5 min at 37° C., Horseradish peroxidase reaction was stopped by adding 50 μl/well of 0.5M H₂SO₄ stop solution. ELISA signal was then measured at 450 nm on an EnSpire plate reader from Perkin Elmer (Schwerzenbach, Switzerland). ELISAs for other antibody/antigen pairs were performed using analogous methods.

B1: CMP-004 (Pembrolizumab) (antibody, human IgG4 S228P, kappa)
heavy: not shown
light: EIVLTQSPATLSLSPGERATLSCRASKGVSTSGYSYLHWYQQKPGQAPRLLIYLASYLESGVPARFSGSGSGTDFTLTISSLEPEDFAVYYCQHSRDLPLTFGGGTKVEIKRTVAAPSVFIFPPSDEQLKSGTASVVCLLNNFYPREAKVQWKVDNALQSGNSQESVTEQDSKDSTYSLSSTLTLSKADYEKHKVYACEVTHQGLSSPVTKSFNRGEC
notes: Unconjugated parent anti-PD-1 antibody (DAR 0); also called Lambrolizumab
**Q.** With B1 as the binder, how does the “IC50 (read off the curve)” value [1] read?
**A.** ~10 nM

**Q.** And the “IC50 (read off the curve)” value [2]?
**A.** ~0.5 nM

**Q.** And the Kd [3]?
**A.** 0.488 nM

**Q.** What about the Kd [4] of the same binder?
**A.** 7.31 nM

**Q.** And the Kd [5]?
**A.** 289 nM

B2: CMP-033 (Durvalumab) (antibody, human IgG1, kappa)
heavy chain: EVQLVESGGGLVQPGGSLRLSCAASGFTFSRYWMSWVRQAPGKGLEWVANIKQDGSEKYYVDSVKGRFTISRDNAKNSLYLQMNSLRAEDTAVYYCAREGGWFGELAFDYWGQGTLVTVSSASTKGPSVFPLAPSSKSTSGGTAALGCLVKDYFPEPVTVSWNSGALTSGVHTFPAVLQSSGLYSLSSVVTVPSSSLGTQTYICNVNHKPSNTKVDKRVEPKSCDKTHTCPPCPAPEFEGGPSVFLFPPKPKDTLMISRTPEVTCVVVDVSHEDPEVKFNWYVDGVEVHNAKTKPREEQYNSTYRVVSVLTVLHQDWLNGKEYKCKVSNKALPASIEKTISKAKGQPREPQVYTLPPSREEMTKNQVSLTCLVKGFYPSDIAVEWESNGQPENNYKTTPPVLDSDGSFFLYSKLTVDKSRWQQGNVFSCSVMHEALHNHYTQKSLSLSPGK
light chain: EIVLTQSPGTLSLSPGERATLSCRASQRVSSSYLAWYQQKPGQAPRLLIYDASSRATGIPDRFSGSGSGTDFTLTISRLEPEDFAVYYCQQYGSLPWTFGQGTKVEIKRTVAAPSVFIFPPSDEQLKSGTASVVCLLNNFYPREAKVQWKVDNALQSGNSQESVTEQDSKDSTYSLSSTLTLSKADYEKHKVYACEVTHQGLSSPVTKSFNRGEC
notes: unconjugated parent anti-PD-L1 antibody; also called Imfinzi; MEDI-4736
**Q.** Does B2 bind [6]?
**A.** binds

**Q.** And the “IC50 (read off the curve)” value [7]?
**A.** ~400 nM

**Q.** What about the “IC50 (read off the curve)” value [8] of the same binder?
**A.** ~500 nM

B3: CMP-105 (LZM-009) (antibody, V domains shown)
VH: QVQLVQSGAEVKKPGASVKVSCKASGYTFTSYYMYWVRQAPGQGLEWMGGVNPSNGGTNFNEKFKSRVTITADKSTSTAYMELSSLRSEDTAVYYCARRDYRYDMGFDYWGQGTTVTVSS
VL: EIVLTQSPATLSLSPGERATISCRASKGVSTSGYSYLHWYQQKPGQAPRLLIYLASYLESGVPARFSGSGSGTDFTLTISSLEPEDFATYYCQHSRELPLTFGTGTKVEIK
notes: Unconjugated parent anti-PD-1 antibody (DAR 0); also called Livzon PD1 AB
**Q.** How did the Kd [9] turn out when B3 was run?
**A.** 0.035 nM

B4: CMP-016 (LZM-009 conjugated to CMP-003, DAR 1, K248) (antibody)
VH: QVQLVQSGAEVKKPGASVKVSCKASGYTFTSYYMYWVRQAPGQGLEWMGGVNPSNGGTNFNEKFKSRVTITADKSTSTAYMELSSLRSEDTAVYYCARRDYRYDMGFDYWGQGTTVTVSS
VL: EIVLTQSPATLSLSPGERATISCRASKGVSTSGYSYLHWYQQKPGQAPRLLIYLASYLESGVPARFSGSGSGTDFTLTISSLEPEDFATYYCQHSRELPLTFGTGTKVEIK
chain: APTSSSTKKTQLQLEHLLLDLQXILNGINNYKNPKLTRXLXYKFYXPKKATELKHLQCLEEELKPLEEVLXLAQSKNFHLRPRDLISNINVIVLELKGSETTFXCEYADETATIVEFLNRWITFSQSIISTLT
modifications: not fully specified; Nle at 23, 39, 46 and Hse at 41, 71, 104 (as in SEQ ID NO: 3); ~0.5 kDa PEG on Y45; 0.5 kDa PEG on F42Y whose azide end is joined to the DBCO linker of the antibody; the heavy chain carries a chemical linker to CMP-003 on Lys K248 (Eu numbering) of the Fc; DAR 1
**Q.** Which Kd [9] does the source give for B4 here?
**A.** 0.037 nM

B5: CMP-102 (LZM-009 conjugated to CMP-003, DAR 1, K288) (antibody)
VH: QVQLVQSGAEVKKPGASVKVSCKASGYTFTSYYMYWVRQAPGQGLEWMGGVNPSNGGTNFNEKFKSRVTITADKSTSTAYMELSSLRSEDTAVYYCARRDYRYDMGFDYWGQGTTVTVSS
VL: EIVLTQSPATLSLSPGERATISCRASKGVSTSGYSYLHWYQQKPGQAPRLLIYLASYLESGVPARFSGSGSGTDFTLTISSLEPEDFATYYCQHSRELPLTFGTGTKVEIK
chain: APTSSSTKKTQLQLEHLLLDLQXILNGINNYKNPKLTRXLXYKFYXPKKATELKHLQCLEEELKPLEEVLXLAQSKNFHLRPRDLISNINVIVLELKGSETTFXCEYADETATIVEFLNRWITFSQSIISTLT
modifications: not fully specified; Nle at 23, 39, 46 and Hse at 41, 71, 104 (as in SEQ ID NO: 3); ~0.5 kDa PEG on Y45; 0.5 kDa PEG on F42Y whose azide end is joined to the DBCO linker of the antibody; the heavy chain carries a chemical linker to CMP-003 on Lys K288 (Eu numbering) of the Fc; DAR 1
**Q.** For B5, which Kd [9] is on record?
**A.** 0.027 nM

B6: CMP-028 (LZM-009 conjugated to CMP-003, DAR 1.9, K288) (antibody)
VH: QVQLVQSGAEVKKPGASVKVSCKASGYTFTSYYMYWVRQAPGQGLEWMGGVNPSNGGTNFNEKFKSRVTITADKSTSTAYMELSSLRSEDTAVYYCARRDYRYDMGFDYWGQGTTVTVSS
VL: EIVLTQSPATLSLSPGERATISCRASKGVSTSGYSYLHWYQQKPGQAPRLLIYLASYLESGVPARFSGSGSGTDFTLTISSLEPEDFATYYCQHSRELPLTFGTGTKVEIK
chain: APTSSSTKKTQLQLEHLLLDLQXILNGINNYKNPKLTRXLXYKFYXPKKATELKHLQCLEEELKPLEEVLXLAQSKNFHLRPRDLISNINVIVLELKGSETTFXCEYADETATIVEFLNRWITFSQSIISTLT
modifications: not fully specified; Nle at 23, 39, 46 and Hse at 41, 71, 104 (as in SEQ ID NO: 3); ~0.5 kDa PEG on Y45; 0.5 kDa PEG on F42Y whose azide end is joined to the DBCO linker of the antibody; the heavy chain carries a chemical linker to CMP-003 on Lys K288 (Eu numbering) of the Fc; DAR 1.9
**Q.** For B6, which Kd [9] is on record?
**A.** 0.041 nM

B7: CMP-041 (LZM-009 conjugated to CMP-095 (IL-7), DAR 1, K248) (antibody)
VH: QVQLVQSGAEVKKPGASVKVSCKASGYTFTSYYMYWVRQAPGQGLEWMGGVNPSNGGTNFNEKFKSRVTITADKSTSTAYMELSSLRSEDTAVYYCARRDYRYDMGFDYWGQGTTVTVSS
VL: EIVLTQSPATLSLSPGERATISCRASKGVSTSGYSYLHWYQQKPGQAPRLLIYLASYLESGVPARFSGSGSGTDFTLTISSLEPEDFATYYCQHSRELPLTFGTGTKVEIK
chain: DCDIEGKDGKQYESVLXVSIDQLLDSXKEIGSNCLXNEFNFFKRHICDANKEGXFLFRAARKLRQFLKXNSTGDFXLHLLKVSEGTTILLNCTGQVKGRKPAALGEAQPTKSLXENKSLKEQKKLNDLCFLKRLLQEIKTCWNKILXGTKEH
modifications: not fully specified; Nle at 17, 27, 54, 69, 147 and Hse at 36, 76, 114 (as in SEQ ID NO: 187); N-terminal amine carries glutaryl-PEG9 whose azide end is joined to the DBCO linker of the antibody; the heavy chain carries a chemical linker to CMP-095 on Lys K248 (Eu numbering) of the Fc; DAR 1
notes: also called Livzon PD1:IL7wt
**Q.** How did the Kd [9] turn out when B7 was run?
**A.** 0.035 nM

From patent US20230201364A1 (BRIGHT PEAK THERAPEUTICS, published 2023)
